This is an account of results in EP4796565A1, “SYNTHESIZED ANTI-CANCER LIPOPEPTIDE AND USE THEREOF” (Yongzhou Zhonggu Biotechnology Co., Ltd., priority 2023, dated 2025).

One data set concerns SK-MES1. The experiment in a line: Tumor cell viability, Alamar Blue. The format is cell-based, human. The settings on record: SK-MES1, Malignant, NSCLC; 48 hours of incubation. Here is the method:
(§1) All human tumor cells used in the present application were obtained from the American Type Culture Collection (ATCC, Manassas, VA, USA) and cultured in RPMI 1640 medium (Gibco) supplemented with 10% (v/v) fetal bovine serum and gentamicin (50 µg/ml) at 37 °C in a 5% CO2 atmosphere. The effects of the lipopeptide and the CIGB-300 peptide on tumor cell viability were assessed using Alamar Blue reagent (Life Technologies, Carlsbad, CA, USA). Cells were seeded in flatbottom 96-well plates (2×10^5 cells/mL, 200 µL/well) and incubated for 24 hours, followed by treatment with the lipopeptide and the CIGB-300 peptide serially diluted from 100 to 3.12 µM at a 1:2 ratio. After 48 hours of incubation, 10% (v/v) Alamar Blue was added, and the cell suspension was incubated for an additional 4 hours. Fluorescence intensity in the microplates was measured, and IC50 values were calculated using CalcuSyn software (version 2.1) (Biosoft, Cambridge, UK).
(Resazurin is reduced to fluorescent resorufin, in cell work by metabolically active cells.)

The next data set deals with SW948. The experiment in a line: Tumor cell viability, Alamar Blue. The settings on record: SW948, Malignant, Colon adenocarcinoma; 48 hours of incubation. The format is cell-based, human. Here is the method: as §1
A further data set concerns U87. The experiment in a line: Tumor cell viability, Alamar Blue. Format: cell-based, human. The settings on record: U87, Malignant, Glioblastoma; 48 hours of incubation. Here is the method:
as §1

For a further data set, the system named is A549. Kind of data set: Tumor cell viability, Alamar Blue. The format is cell-based, human. The settings on record: A549, Malignant, NSCLC; 48 hours of incubation. Here is the method: as §1
The next data set concerns A431. Kind of data set: Tumor cell viability, Alamar Blue. Conditions: A431, Malignant, Vulvar epidermoid carcinoma; 48 hours of incubation. The format is cell-based, human. The protocol:
as §1

A further data set concerns PC3. The experiment in a line: Tumor cell viability, Alamar Blue. Format: cell-based, human. The settings on record: PC3, Malignant, Prostate cancer; 48 hours of incubation. The protocol: as §1
A further data set deals with NCI-H522. Kind of data set: Tumor cell viability, Alamar Blue. Format: cell-based, human. Conditions: NCI-H522, Malignant, NSCLC; 48 hours of incubation. Here is the method:
as §1

In another data set the test system is NCI-H82. Kind of data set: Tumor cell viability, Alamar Blue. The format is cell-based, human. The settings on record: NCI-H82, Malignant, SCLC; 48 hours of incubation. The protocol:
as §1

The test system of the next data set is NCI-H460. Kind of data set: Tumor cell viability, Alamar Blue. Format: cell-based, human. The settings on record: NCI-H460, Malignant, NSCLC; 48 hours of incubation. Here is the method: as §1
The test system of another data set is Hep-2. The experiment in a line: Tumor cell viability, Alamar Blue. The format is cell-based, human. The settings on record: Hep-2, Malignant, Laryngeal squamous cell carcinoma; 48 hours of incubation. The protocol:
as §1

In a further data set the test system is NCI-H226. Kind of data set: Tumor cell viability, Alamar Blue. The format is cell-based, human. The settings on record: NCI-H226, Malignant, NSCLC; 48 hours of incubation. Here is the method: as §1
The test system of another data set is NCI-H125. The experiment in a line: Tumor cell viability, Alamar Blue. Format: cell-based, human. Conditions: NCI-H125, Malignant, NSCLC; 48 hours of incubation. The protocol:
as §1

The next data set has as its system HepG2. Kind of data set: Tumor cell viability, Alamar Blue. Format: cell-based, human. The settings on record: HepG2, Malignant, Hepatocellular carcinoma; 48 hours of incubation. Here is the method: as §1
The subject of another data set is MRC-5. Kind of data set: Cell viability, Alamar Blue (benign cells). Conditions: MRC-5, Benign, Lung fibroblasts; 48 hours of incubation. The format is cell-based.
The subject of the next data set is RR-805. The experiment in a line: Cell viability, Alamar Blue (benign cells). Format: cell-based. Conditions: RR-805, Benign, Renal primary fibroblasts; 48 hours of incubation.
The subject of the next data set is A549 cells. The experiment in a line: ROS levels (DHE reagent) and cell viability by flow cytometry. Format: cell-based, human. Conditions: for DHE reagent (Geometric mean) Mean: ROS level. Here is the method:
In addition to inducing higher levels of apoptosis compared to the CIGB-300 peptide, the lipopeptide also triggered greater reactive oxygen species (ROS) production in A549 cells after 2 hours of incubation with the antioxidant N-acetyl-L-cysteine (NAC), as analyzed by flow cytometry (Table 2). The elevated ROS levels were correlated with the stronger inhibitory effect of the lipopeptide on cell viability. Table 2: ROS levels induced by the lipopeptide and the CIGB-300 peptide in A549 cells

The target in the next data set is Cullin-1 (Homo sapiens, UniProt Q13616).
Sequence of Cullin-1 (Q13616 whole entry): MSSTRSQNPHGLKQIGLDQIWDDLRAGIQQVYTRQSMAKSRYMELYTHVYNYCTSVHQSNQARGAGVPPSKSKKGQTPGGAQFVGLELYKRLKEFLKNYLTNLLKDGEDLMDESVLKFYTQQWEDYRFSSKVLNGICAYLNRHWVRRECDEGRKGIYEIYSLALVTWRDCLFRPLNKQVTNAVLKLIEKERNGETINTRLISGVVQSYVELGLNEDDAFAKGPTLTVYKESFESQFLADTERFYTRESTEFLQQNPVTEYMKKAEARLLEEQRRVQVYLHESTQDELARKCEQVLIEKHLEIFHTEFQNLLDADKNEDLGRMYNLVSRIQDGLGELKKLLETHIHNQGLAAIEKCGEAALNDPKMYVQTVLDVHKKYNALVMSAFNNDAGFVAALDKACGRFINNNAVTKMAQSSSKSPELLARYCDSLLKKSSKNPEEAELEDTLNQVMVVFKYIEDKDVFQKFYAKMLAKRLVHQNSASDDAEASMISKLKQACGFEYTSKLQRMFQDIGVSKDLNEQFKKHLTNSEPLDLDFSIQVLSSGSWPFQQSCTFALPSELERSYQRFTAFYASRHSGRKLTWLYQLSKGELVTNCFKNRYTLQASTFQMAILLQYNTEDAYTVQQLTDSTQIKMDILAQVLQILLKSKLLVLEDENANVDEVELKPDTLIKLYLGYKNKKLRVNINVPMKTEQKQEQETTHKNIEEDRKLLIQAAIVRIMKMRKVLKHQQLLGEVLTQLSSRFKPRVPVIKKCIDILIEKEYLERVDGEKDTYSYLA
The target in a further data set is Histone H2A type 2-B (Homo sapiens, UniProt Q8IUE6).
In data set [1] the target is Gem-associated protein 2 (Homo sapiens) (UniProt O14893).
The target of data set [2] is Arginyl-tRNA-protein transferase 1 (Homo sapiens, UniProt O95260).
Sequence of Arginyl-tRNA-protein transferase 1 (O95260 whole entry): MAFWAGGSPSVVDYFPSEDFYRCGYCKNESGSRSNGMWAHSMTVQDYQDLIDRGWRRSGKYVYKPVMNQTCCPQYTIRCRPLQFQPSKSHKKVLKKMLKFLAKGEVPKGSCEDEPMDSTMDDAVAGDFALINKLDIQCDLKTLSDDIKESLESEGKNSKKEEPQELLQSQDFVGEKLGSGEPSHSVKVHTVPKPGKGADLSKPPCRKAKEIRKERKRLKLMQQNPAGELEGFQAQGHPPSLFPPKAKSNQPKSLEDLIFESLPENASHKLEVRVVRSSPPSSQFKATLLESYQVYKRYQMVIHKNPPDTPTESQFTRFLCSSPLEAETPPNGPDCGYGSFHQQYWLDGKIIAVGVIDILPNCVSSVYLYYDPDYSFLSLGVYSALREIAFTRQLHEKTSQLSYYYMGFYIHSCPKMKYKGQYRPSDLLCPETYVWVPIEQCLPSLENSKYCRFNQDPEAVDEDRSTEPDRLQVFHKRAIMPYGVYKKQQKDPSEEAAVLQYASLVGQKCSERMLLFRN
Data set [3] addresses Serine/arginine-rich splicing factor 8 (Homo sapiens) (UniProt Q9BRL6).
The target of data set [4] is Calponin-3 (Homo sapiens) (UniProt Q15417).
Sequence of Calponin-3 (Homo sapiens) (Q15417 whole entry): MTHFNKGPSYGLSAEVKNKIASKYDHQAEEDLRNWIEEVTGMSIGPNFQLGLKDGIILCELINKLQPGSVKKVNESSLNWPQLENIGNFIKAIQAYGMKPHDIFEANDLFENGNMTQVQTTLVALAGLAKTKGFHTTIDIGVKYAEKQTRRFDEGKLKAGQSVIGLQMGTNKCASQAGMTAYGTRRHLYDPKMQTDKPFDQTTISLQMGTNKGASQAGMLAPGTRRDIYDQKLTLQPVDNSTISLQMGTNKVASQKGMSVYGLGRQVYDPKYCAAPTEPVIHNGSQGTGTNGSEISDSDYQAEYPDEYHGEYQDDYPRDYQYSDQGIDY
Data set [5] concerns the target Cleavage stimulation subunit 3 (Homo sapiens) (UniProt Q12996).
In data set [6] the target is U6 snRNA-associated Sm-like protein LSm8 (Homo sapiens) (UniProt O95777).
Sequence of U6 snRNA-associated Sm-like protein LSm8 (Homo sapiens) (O95777 2-96 limits assumed): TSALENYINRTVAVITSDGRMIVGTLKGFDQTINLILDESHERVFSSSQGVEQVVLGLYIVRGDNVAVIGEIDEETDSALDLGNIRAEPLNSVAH
The target in data set [7] is Collagen alpha-1(V) chain (Homo sapiens, UniProt P20908).
Sequence of Collagen alpha-1(V) chain (P20908 38-1605 limits assumed): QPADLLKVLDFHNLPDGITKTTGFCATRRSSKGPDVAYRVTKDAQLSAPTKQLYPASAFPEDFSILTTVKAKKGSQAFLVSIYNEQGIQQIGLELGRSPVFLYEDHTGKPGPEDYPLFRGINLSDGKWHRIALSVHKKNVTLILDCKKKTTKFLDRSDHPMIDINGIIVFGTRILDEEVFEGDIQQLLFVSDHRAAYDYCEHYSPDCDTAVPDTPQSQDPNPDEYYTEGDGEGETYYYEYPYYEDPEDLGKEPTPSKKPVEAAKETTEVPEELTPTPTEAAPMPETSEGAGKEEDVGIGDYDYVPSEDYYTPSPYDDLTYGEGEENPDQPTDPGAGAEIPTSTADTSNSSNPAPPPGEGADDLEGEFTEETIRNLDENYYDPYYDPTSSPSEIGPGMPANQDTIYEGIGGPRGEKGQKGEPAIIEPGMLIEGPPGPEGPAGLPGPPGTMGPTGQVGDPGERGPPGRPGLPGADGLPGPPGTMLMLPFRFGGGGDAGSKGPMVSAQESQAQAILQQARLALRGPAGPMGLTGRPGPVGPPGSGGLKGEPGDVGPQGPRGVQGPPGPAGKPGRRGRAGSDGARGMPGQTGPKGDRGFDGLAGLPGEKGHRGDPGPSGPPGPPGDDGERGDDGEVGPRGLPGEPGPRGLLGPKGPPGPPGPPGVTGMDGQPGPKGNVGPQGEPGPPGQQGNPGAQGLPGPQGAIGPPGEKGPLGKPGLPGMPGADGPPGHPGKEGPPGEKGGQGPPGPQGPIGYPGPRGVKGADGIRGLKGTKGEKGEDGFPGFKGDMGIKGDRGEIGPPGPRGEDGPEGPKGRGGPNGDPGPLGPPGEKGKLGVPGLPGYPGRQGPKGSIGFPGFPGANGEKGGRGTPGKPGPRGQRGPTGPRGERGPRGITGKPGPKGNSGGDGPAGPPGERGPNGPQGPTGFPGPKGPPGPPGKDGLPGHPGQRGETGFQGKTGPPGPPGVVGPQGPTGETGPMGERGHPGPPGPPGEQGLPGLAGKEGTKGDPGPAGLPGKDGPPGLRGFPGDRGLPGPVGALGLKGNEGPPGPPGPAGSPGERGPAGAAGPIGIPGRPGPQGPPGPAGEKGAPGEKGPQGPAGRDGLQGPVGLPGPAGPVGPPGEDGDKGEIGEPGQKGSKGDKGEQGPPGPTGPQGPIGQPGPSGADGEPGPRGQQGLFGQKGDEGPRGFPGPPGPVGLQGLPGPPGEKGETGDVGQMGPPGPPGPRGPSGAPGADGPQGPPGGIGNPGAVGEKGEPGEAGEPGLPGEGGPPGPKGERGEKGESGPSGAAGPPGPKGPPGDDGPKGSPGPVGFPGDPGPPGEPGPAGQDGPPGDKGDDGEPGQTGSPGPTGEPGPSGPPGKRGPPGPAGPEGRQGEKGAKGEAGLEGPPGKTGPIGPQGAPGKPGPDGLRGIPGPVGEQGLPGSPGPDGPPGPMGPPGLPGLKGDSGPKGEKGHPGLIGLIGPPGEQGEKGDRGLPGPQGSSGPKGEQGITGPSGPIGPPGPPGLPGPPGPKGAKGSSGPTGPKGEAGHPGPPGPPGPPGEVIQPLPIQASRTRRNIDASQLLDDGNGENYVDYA
Another data set concerns the target Surfeit locus protein 2 (Homo sapiens, UniProt Q15527).
Data set [8] deals with High mobility group protein HMGI-C (Homo sapiens) (UniProt P52926).
Sequence of High mobility group protein HMGI-C (Homo sapiens) (P52926 2-109 limits assumed): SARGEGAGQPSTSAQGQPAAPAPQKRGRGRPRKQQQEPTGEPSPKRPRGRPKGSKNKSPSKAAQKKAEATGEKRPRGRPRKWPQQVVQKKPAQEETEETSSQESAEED
Data set [9] addresses Replication protein A 32 kDa subunit (Homo sapiens, UniProt P15927).
In another data set the target is Xaa-Pro aminopeptidase 1 (Homo sapiens, UniProt Q9NQW7).
Sequence of Xaa-Pro aminopeptidase 1 (Q9NQW7 2-623 limits assumed): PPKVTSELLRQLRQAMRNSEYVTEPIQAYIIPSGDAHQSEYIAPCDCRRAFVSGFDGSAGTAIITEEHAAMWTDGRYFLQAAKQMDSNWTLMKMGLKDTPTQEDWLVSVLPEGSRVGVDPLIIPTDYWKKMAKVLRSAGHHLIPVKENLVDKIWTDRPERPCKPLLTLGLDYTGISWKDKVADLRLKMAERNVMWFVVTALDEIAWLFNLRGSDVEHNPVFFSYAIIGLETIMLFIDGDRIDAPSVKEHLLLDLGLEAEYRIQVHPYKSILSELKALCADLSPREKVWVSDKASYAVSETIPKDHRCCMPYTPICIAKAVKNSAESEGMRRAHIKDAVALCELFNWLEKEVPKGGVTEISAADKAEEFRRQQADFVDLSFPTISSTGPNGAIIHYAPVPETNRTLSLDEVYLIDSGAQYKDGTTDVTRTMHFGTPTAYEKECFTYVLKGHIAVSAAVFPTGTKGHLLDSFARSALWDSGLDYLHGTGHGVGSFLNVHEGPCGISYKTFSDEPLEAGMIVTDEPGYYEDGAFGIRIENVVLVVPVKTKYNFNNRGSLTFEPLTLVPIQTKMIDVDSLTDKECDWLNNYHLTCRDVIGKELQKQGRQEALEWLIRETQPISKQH
The target in a further data set is recombinant CK2α. Kind of data set: cell-based or functional assay.
The mark [10] stands for this setting: With NAC, 2 hours of incubation.

Sequence of Cleavage stimulation subunit 3 (Homo sapiens) (Q12996 2-717 limits assumed): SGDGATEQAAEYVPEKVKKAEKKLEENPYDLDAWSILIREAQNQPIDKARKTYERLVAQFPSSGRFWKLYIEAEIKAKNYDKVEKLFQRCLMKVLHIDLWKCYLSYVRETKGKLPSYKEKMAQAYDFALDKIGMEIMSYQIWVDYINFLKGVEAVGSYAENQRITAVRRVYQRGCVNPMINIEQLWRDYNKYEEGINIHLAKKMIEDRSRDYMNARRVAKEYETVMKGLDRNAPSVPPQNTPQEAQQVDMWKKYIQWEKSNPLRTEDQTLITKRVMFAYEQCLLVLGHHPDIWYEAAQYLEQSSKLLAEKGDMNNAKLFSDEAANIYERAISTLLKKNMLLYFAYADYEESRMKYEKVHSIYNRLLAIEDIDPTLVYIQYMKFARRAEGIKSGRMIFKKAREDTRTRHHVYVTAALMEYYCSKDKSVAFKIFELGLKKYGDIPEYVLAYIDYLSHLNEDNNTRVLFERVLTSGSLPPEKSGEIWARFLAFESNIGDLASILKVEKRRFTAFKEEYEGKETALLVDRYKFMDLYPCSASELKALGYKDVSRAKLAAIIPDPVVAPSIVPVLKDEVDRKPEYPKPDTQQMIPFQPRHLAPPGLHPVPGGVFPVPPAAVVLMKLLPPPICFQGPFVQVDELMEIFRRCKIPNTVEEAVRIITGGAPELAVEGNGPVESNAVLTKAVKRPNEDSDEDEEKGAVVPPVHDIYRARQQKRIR
Sequence of Replication protein A 32 kDa subunit (P15927 whole entry): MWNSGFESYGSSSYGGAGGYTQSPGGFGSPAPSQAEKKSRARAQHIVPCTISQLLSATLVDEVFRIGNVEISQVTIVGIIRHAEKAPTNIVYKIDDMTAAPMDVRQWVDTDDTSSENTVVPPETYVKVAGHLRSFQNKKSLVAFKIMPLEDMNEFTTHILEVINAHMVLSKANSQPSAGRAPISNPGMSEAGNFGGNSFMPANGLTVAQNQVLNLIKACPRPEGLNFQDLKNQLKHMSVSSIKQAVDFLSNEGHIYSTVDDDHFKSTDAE

Take `CSCC[C@@H]1NC(=O)[C@H](Cc2c[nH]c3ccccc23)NC(=O)[C@@H](NC(=O)CCNC(=O)[C@H](CCC(N)=O)NC(=O)[C@@H]2CCCN2C(=O)[C@@H]2CCCN2C(=O)[C@H](CCCNC(=N)N)NC(=O)[C@H](CCCNC(=N)N)NC(=O)[C@H](CCCNC(=N)N)NC(=O)[C@H](CCC(N)=O)NC(=O)[C@H](CCCNC(=N)N)NC(=O)[C@H](CCCNC(=N)N)NC(=O)[C@H](CCCCN)NC(=O)[C@H](CCCCN)NC(=O)[C@H](CCCNC(=N)N)NC(=O)CN)CSSC[C@@H](C(N)=O)NC(=O)[C@H]([C@@H](C)O)NC(=O)CNC(=O)[C@H](CC(C)C)NC(=O)[C@H](Cc2c[nH]cn2)NC(=O)[C@H](CCCNC(=N)N)NC(=O)[C@@H]2CCCN2C(=O)[C@H](CO)NC1=O` [The CIGB-300 peptide, reference compound]: the IC50 in the data set on SK-MES1 was found to be 150 ± 7 µM; in the data set with SW948, 143.1 ± 1 µM; with U87, 154 ± 15 µM; with A549 it was 180 ± 30 µM; with A431 it was 90.7 ± 4 µM; in the data set with PC3, 170 ± 5 µM. Further, the IC50 was found to be 70 µM in the data set on NCI-H522; 39.7 ± 11 µM with NCI-H82; 30 ± 9 µM in the data set with NCI-H460; 30.7 ± 2 µM in the data set on Hep-2; 70.8 µM in the data set with NCI-H226; 76.3 ± 2 µM in the data set with NCI-H125. Also, the values for the IC50 with HepG2, with MRC-5 and in the data set with RR-805 were 128 ± 44 µM, 198 ± 8 µM and 230 ± 6 µM, respectively.

Take `OO` [H2O2]: in the data set with A549 cells (setting [10]), the “Cell viability (%) Mean” value is listed as 94.9% and the “DHE reagent (Geometric mean) Mean” value is given as 4175. Further, in the data set with A549 cells (Without NAC), the “Cell viability (%) Mean” value stood at 94.0% and the “DHE reagent (Geometric mean) Mean” value is recorded as 4335.

For “synthetic anti-cancer lipopeptide (decanoyl-CIGB-300)”, the Abundance ratio of lipopeptide/CIGB-300 with Cullin-1 was 2.3; with Histone H2A type 2-B, 2.19; in data set [1], 2.62; in data set [2], 2.01; in [3], 2.86; in data set [4], 2.37. Besides, the Abundance ratio of lipopeptide/CIGB-300 in data set [5] is 5.12; in data set [6] it was 3.31; in data set [7], 2.97; with Surfeit locus protein 2, 2.05; in [8], 3.88; in data set [9], 2.1. Also, the Abundance ratio of lipopeptide/CIGB-300 in the data set with Xaa-Pro aminopeptidase 1 worked out at 2.26.

For the compound CIGB-300 peptide, in the data set with recombinant CK2α, the CK2 enzyme activity (CPM x10^3) at 0.00 µM peptide (baseline without peptide) is 170000 CPM, the CK2 enzyme activity (CPM x10^3) at 0.097 µM peptide was 171000 CPM, the CK2 enzyme activity (CPM x10^3) at 0.195 µM peptide is 169000 CPM and the CK2 enzyme activity (CPM x10^3) at 0.39 µM peptide is 162000 CPM. Further, in the data set with recombinant CK2α, the CK2 enzyme activity (CPM x10^3) at 0.781 µM peptide is 158000 CPM, the CK2 enzyme activity (CPM x10^3) at 1.56 µM peptide is 109000 CPM, the CK2 enzyme activity (CPM x10^3) at 3.125 µM peptide is 92000 CPM and the CK2 enzyme activity (CPM x10^3) at 6.25 µM peptide is 61000 CPM. For the same compound, in the data set with recombinant CK2α, the CK2 enzyme activity (CPM x10^3) at 12.5 µM peptide is 31000 CPM, the CK2 enzyme activity (CPM x10^3) at 25 µM peptide turned out to be 19000 CPM and the CK2 enzyme activity (CPM x10^3) at 50 µM peptide is 4000 CPM.

A word on the IC50: it is the concentration that inhibits the measured activity by half. A low value points to greater potency in that assay.
